Measurements: patent US20240287154A1, “MC3R AGONIST PEPTIDES” (The Regents of the University of Michigan, priority 2021, published 2024)
Non-standard residues stand in square brackets, D forms with d. Phe(4-I) = N[C@@H](Cc1ccc(I)cc1)C(=O)O; Nle = CCCC[C@H](N)C(=O)O; dAbu = CC[C@@H](N)C(=O)O; Aib = CC(C)(N)C(=O)O

B1: CTX-1531 (peptide)
peptide: Ac-[Nle][dA]HFR[dW][dF]RFG-OH
SMILES: CCCC[C@H](NC(C)=O)C(=O)N[C@H](C)C(=O)N[C@@H](Cc1c[nH]cn1)C(=O)N[C@@H](Cc1ccccc1)C(=O)N[C@@H](CCCNC(=N)N)C(=O)N[C@H](Cc1c[nH]c2ccccc12)C(=O)N[C@H](Cc1ccccc1)C(=O)N[C@@H](CCCNC(=N)N)C(=O)N[C@@H](Cc1ccccc1)C(=O)NCC(=O)O
B2: CTX-1537 (peptide)
peptide: Ac-[Nle][dA]HFR[dW]DRAG-OH
SMILES: CCCC[C@H](NC(C)=O)C(=O)N[C@H](C)C(=O)N[C@@H](Cc1c[nH]cn1)C(=O)N[C@@H](Cc1ccccc1)C(=O)N[C@@H](CCCNC(=N)N)C(=O)N[C@H](Cc1c[nH]c2ccccc12)C(=O)N[C@@H](CC(=O)O)C(=O)N[C@@H](CCCNC(=N)N)C(=O)N[C@@H](C)C(=O)NCC(=O)O
B3: CTX-1540 (peptide)
peptide: Ac-[Nle][dA]HFR[dW]G-NH2
SMILES: CCCC[C@H](NC(C)=O)C(=O)N[C@H](C)C(=O)N[C@@H](Cc1c[nH]cn1)C(=O)N[C@@H](Cc1ccccc1)C(=O)N[C@@H](CCCNC(=N)N)C(=O)N[C@H](Cc1c[nH]c2ccccc12)C(=O)NCC(N)=O
B4: CTX-1538 (peptide)
peptide: Ac-[Nle][dA]HFR[dW]DRFV-OH
SMILES: CCCC[C@H](NC(C)=O)C(=O)N[C@H](C)C(=O)N[C@@H](Cc1c[nH]cn1)C(=O)N[C@@H](Cc1ccccc1)C(=O)N[C@@H](CCCNC(=N)N)C(=O)N[C@H](Cc1c[nH]c2ccccc12)C(=O)N[C@@H](CC(=O)O)C(=O)N[C@@H](CCCNC(=N)N)C(=O)N[C@@H](Cc1ccccc1)C(=O)N[C@H](C(=O)O)C(C)C
B5: CTX-1536 (peptide)
peptide: Ac-[Nle][dA]HFR[dW]DRPG-OH
SMILES: CCCC[C@H](NC(C)=O)C(=O)N[C@H](C)C(=O)N[C@@H](Cc1c[nH]cn1)C(=O)N[C@@H](Cc1ccccc1)C(=O)N[C@@H](CCCNC(=N)N)C(=O)N[C@H](Cc1c[nH]c2ccccc12)C(=O)N[C@@H](CC(=O)O)C(=O)N[C@@H](CCCNC(=N)N)C(=O)N1CCC[C@H]1C(=O)NCC(=O)O
B6: CTX-1542 (peptide)
peptide: Ac-[Nle][dA]HFR[dW][dF]-NH2
SMILES: CCCC[C@H](NC(C)=O)C(=O)N[C@H](C)C(=O)N[C@@H](Cc1c[nH]cn1)C(=O)N[C@@H](Cc1ccccc1)C(=O)N[C@@H](CCCNC(=N)N)C(=O)N[C@H](Cc1c[nH]c2ccccc12)C(=O)N[C@H](Cc1ccccc1)C(N)=O
B7: CTX-1547 (peptide)
peptide: H-MGHFR[dW]DRFG-OH
SMILES: CSCC[C@H](N)C(=O)NCC(=O)N[C@@H](Cc1c[nH]cn1)C(=O)N[C@@H](Cc1ccccc1)C(=O)N[C@@H](CCCNC(=N)N)C(=O)N[C@H](Cc1c[nH]c2ccccc12)C(=O)N[C@@H](CC(=O)O)C(=O)N[C@@H](CCCNC(=N)N)C(=O)N[C@@H](Cc1ccccc1)C(=O)NCC(=O)O
B8: CTX-1131 (peptide)
peptide: H-YV[Nle][dAbu]HFR[dW]D-NH2
SMILES: CCCC[C@H](NC(=O)[C@@H](NC(=O)[C@@H](N)Cc1ccc(O)cc1)C(C)C)C(=O)N[C@H](CC)C(=O)N[C@@H](Cc1c[nH]cn1)C(=O)N[C@@H](Cc1ccccc1)C(=O)N[C@@H](CCCNC(=N)N)C(=O)N[C@H](Cc1c[nH]c2ccccc12)C(=O)N[C@@H](CC(=O)O)C(N)=O
B9: CTX-1545 (peptide)
peptide: Ac-[Nle][Aib]H[Phe(4-I)]R[dW]G-NH2
SMILES: CCCC[C@H](NC(C)=O)C(=O)NC(C)(C)C(=O)N[C@@H](Cc1c[nH]cn1)C(=O)N[C@@H](Cc1ccc(I)cc1)C(=O)N[C@@H](CCCNC(=N)N)C(=O)N[C@H](Cc1c[nH]c2ccccc12)C(=O)NCC(N)=O
B10: CTX-1533 (peptide)
peptide: Ac-[Nle][dA]HFR[dW]KRFG-OH
SMILES: CCCC[C@H](NC(C)=O)C(=O)N[C@H](C)C(=O)N[C@@H](Cc1c[nH]cn1)C(=O)N[C@@H](Cc1ccccc1)C(=O)N[C@@H](CCCNC(=N)N)C(=O)N[C@H](Cc1c[nH]c2ccccc12)C(=O)N[C@@H](CCCCN)C(=O)N[C@@H](CCCNC(=N)N)C(=O)N[C@@H](Cc1ccccc1)C(=O)NCC(=O)O
B11: CTX-1142 (peptide)
peptide: H-[dY]V[Nle][dA]HFR[dW]D-NH2
SMILES: CCCC[C@H](NC(=O)[C@@H](NC(=O)[C@H](N)Cc1ccc(O)cc1)C(C)C)C(=O)N[C@H](C)C(=O)N[C@@H](Cc1c[nH]cn1)C(=O)N[C@@H](Cc1ccccc1)C(=O)N[C@@H](CCCNC(=N)N)C(=O)N[C@H](Cc1c[nH]c2ccccc12)C(=O)N[C@@H](CC(=O)O)C(N)=O
B12: CTX-1534 (peptide)
peptide: Ac-[Nle][dA]HFR[dW]DAFG-OH
SMILES: CCCC[C@H](NC(C)=O)C(=O)N[C@H](C)C(=O)N[C@@H](Cc1c[nH]cn1)C(=O)N[C@@H](Cc1ccccc1)C(=O)N[C@@H](CCCNC(=N)N)C(=O)N[C@H](Cc1c[nH]c2ccccc12)C(=O)N[C@@H](CC(=O)O)C(=O)N[C@@H](C)C(=O)N[C@@H](Cc1ccccc1)C(=O)NCC(=O)O
B13: CTX-1535 (peptide)
peptide: Ac-[Nle][dA]HFR[dW]DKFG-OH
SMILES: CCCC[C@H](NC(C)=O)C(=O)N[C@H](C)C(=O)N[C@@H](Cc1c[nH]cn1)C(=O)N[C@@H](Cc1ccccc1)C(=O)N[C@@H](CCCNC(=N)N)C(=O)N[C@H](Cc1c[nH]c2ccccc12)C(=O)N[C@@H](CC(=O)O)C(=O)N[C@@H](CCCCN)C(=O)N[C@@H](Cc1ccccc1)C(=O)NCC(=O)O
B14: CTX-1532 (peptide)
peptide: Ac-[Nle][dA]HFR[dW][Nle]RFG-OH
SMILES: CCCC[C@H](NC(C)=O)C(=O)N[C@H](C)C(=O)N[C@@H](Cc1c[nH]cn1)C(=O)N[C@@H](Cc1ccccc1)C(=O)N[C@@H](CCCNC(=N)N)C(=O)N[C@H](Cc1c[nH]c2ccccc12)C(=O)N[C@@H](CCCC)C(=O)N[C@@H](CCCNC(=N)N)C(=O)N[C@@H](Cc1ccccc1)C(=O)NCC(=O)O
B15: CTX-1132 (peptide)
peptide: H-YV[Nle][dF]HFR[dW]D-NH2
SMILES: CCCC[C@H](NC(=O)[C@@H](NC(=O)[C@@H](N)Cc1ccc(O)cc1)C(C)C)C(=O)N[C@H](Cc1ccccc1)C(=O)N[C@@H](Cc1c[nH]cn1)C(=O)N[C@@H](Cc1ccccc1)C(=O)N[C@@H](CCCNC(=N)N)C(=O)N[C@H](Cc1c[nH]c2ccccc12)C(=O)N[C@@H](CC(=O)O)C(N)=O
B16: CTX-1548 (peptide)
peptide: H-YVMGRFR[dW]DRFG-OH
SMILES: CSCC[C@H](NC(=O)[C@@H](NC(=O)[C@@H](N)Cc1ccc(O)cc1)C(C)C)C(=O)NCC(=O)N[C@@H](CCCNC(=N)N)C(=O)N[C@@H](Cc1ccccc1)C(=O)N[C@@H](CCCNC(=N)N)C(=O)N[C@H](Cc1c[nH]c2ccccc12)C(=O)N[C@@H](CC(=O)O)C(=O)N[C@@H](CCCNC(=N)N)C(=O)N[C@@H](Cc1ccccc1)C(=O)NCC(=O)O
B17: CTX-1543 (peptide)
peptide: Ac-[Nle][dA]H[Phe(4-I)]R[dW]G-NH2
SMILES: CCCC[C@H](NC(C)=O)C(=O)N[C@H](C)C(=O)N[C@@H](Cc1c[nH]cn1)C(=O)N[C@@H](Cc1ccc(I)cc1)C(=O)N[C@@H](CCCNC(=N)N)C(=O)N[C@H](Cc1c[nH]c2ccccc12)C(=O)NCC(N)=O
B18: CTX-1130 (peptide)
peptide: H-YV[Nle][Aib]HFR[dW]D-NH2
SMILES: CCCC[C@H](NC(=O)[C@@H](NC(=O)[C@@H](N)Cc1ccc(O)cc1)C(C)C)C(=O)NC(C)(C)C(=O)N[C@@H](Cc1c[nH]cn1)C(=O)N[C@@H](Cc1ccccc1)C(=O)N[C@@H](CCCNC(=N)N)C(=O)N[C@H](Cc1c[nH]c2ccccc12)C(=O)N[C@@H](CC(=O)O)C(N)=O
B19: CTX-1541 (peptide)
peptide: Ac-[Nle][dA]HFR[dW]F-NH2
SMILES: CCCC[C@H](NC(C)=O)C(=O)N[C@H](C)C(=O)N[C@@H](Cc1c[nH]cn1)C(=O)N[C@@H](Cc1ccccc1)C(=O)N[C@@H](CCCNC(=N)N)C(=O)N[C@H](Cc1c[nH]c2ccccc12)C(=O)N[C@@H](Cc1ccccc1)C(N)=O

Target: human MC3R (human, UniProt P41968 1-323)
Sequence (P41968 whole entry): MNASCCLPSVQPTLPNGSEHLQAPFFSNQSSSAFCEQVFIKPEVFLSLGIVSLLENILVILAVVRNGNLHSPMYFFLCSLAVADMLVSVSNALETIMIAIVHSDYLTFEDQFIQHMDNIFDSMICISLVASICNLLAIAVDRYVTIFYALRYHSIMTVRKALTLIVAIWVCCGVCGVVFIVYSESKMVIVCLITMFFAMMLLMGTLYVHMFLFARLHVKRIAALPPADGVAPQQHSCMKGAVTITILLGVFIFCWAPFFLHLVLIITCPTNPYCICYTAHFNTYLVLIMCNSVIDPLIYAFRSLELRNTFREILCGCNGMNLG
Experiment: cell-based or functional assay

MC3R cAMP (EC50) [nM] | MC3R selectivity (relative to MC4R) | Binder
356 |  | B1
47.1 | 16 | Ac-[Nle][dA]HFR[dW]-NH2 [CTX-1539]
25.5 | 278 | B2
25.1 | 11 | B3
7.4 | 1280 | B4
73 | 72 | B5
64.6 | 15 | B6
1.5 | 54 | B7
6.6 | 65 | B8
51.6 | 14 | B9
14.2 | 314 | B10
36 | 54 | B11
38.8 | 186 | B12
6 | 1590 | B13
2.5 | 566 | YVXXHFRWDRFG (Nle at 3; Aib at 4; D-Trp at 8) [CTX-1134]
2.4 | 102 | YVXGRFRWDRFG (Nle at 3; D-Trp at 8) [CTX-1549]
10.3 | 184 | B14
3.9 | 6.8 | B15
1.7 | 51 | H-VMGHFR[dW]DRFG-OH [CTX-1546]
3.8 | 267 | B16
3.1 | 202 | B17
26.5 | 58 | B18
65.2 | 9 | B19
